Tests used:
Assay in all cases: SPR
VARV B7 [1] = target: T1, VARV B7 (variola virus (VARV))
VACV B5 [2] = target: T2, VACV B5 (vaccinia virus (VACV), UniProt Q01227 18-317)
CPXV CPXV199 [3] = target: T3, CPXV CPXV199 (cowpox virus (CPXV))
VARV B7 [4] = target: T1, VARV B7; remark: listed apart in the source
VACV B5 [5] = target: T2, VACV B5; remark: listed apart in the source
MPXV B6 protein = MPXV B6 protein (monkeypox virus (MPXV))
CPXV CPXV199 [6] = target: T3, CPXV CPXV199; remark: listed apart in the source

Binder	Kd (VARV B7 [1]) [nM]	Kd (VACV B5 [2]) [nM]	Kd (CPXV CPXV199 [3]) [nM]	koff (VARV B7 [4]) [s⁻¹]	koff (VACV B5 [5]) [s⁻¹]	koff (MPXV B6 protein) [s⁻¹]	koff (CPXV CPXV199 [6]) [s⁻¹]
hMB621 (antibody, V domains shown) VH: QVQLVQSGGGVVQPGRSLRLSCVASGFSISTYPLHWVRQAPGKGLEWVAVISHDGRNKYYADSVKGRFSISRDNSKNTVYLQMNSLRVEDTAVYYCARAYPYAFDVWGQGTLVTVSS VL: EIVLTQSPATLSVSPGETATLSCRASQSVRNDLAWYQQKPGQAPRLLIYGASTRASGIPARFSGSGSGTEFTLTISSLQSEDFAIYYCQQYKDWPPWTFGQGTKVEIK	5.1	2.8	2.6	0.00019	0.00017	9.7e-05	0.00011
hMB668 (antibody, V domains shown) VH: QVQLVQSGAEVKKPGSSVKVSCKSSGGTFSDYAINWVRQAPGQGLEWMGRILPIVGVPNYAQKFQGRVTITADKSSSTAYKEVSGLRSEDTAVYYCARRSGINGHGLDVWGQGTTVIVSS VL: DIVMTQSPLSLPVTPGEPASISCRSSQSLLNTNGYNYLEWYLHKPGQSPQLLIYLGSHRASGVPDRFSGSGSGTDFTLKISRAEPEDVGVYYCMQTLQTQGYTFGQGTKLEIK	15.8	3.1	27.2	5.5e-05	8.2e-05	7.8e-05	0.00011

Source: paper PMC11143242 (2024)
